We go through 3 molecules from patent US20090074771A1 (MacroGenics, published 2009).

In assay [1] the target is human FcγRIIB (CD32B) on cells (human) (UniProt P31994). The assay can be described thus: double-staining FACS on CHO cells with full-length FcγRIIB, isotype control pre-incubation.
In assay [2] the target is T1, FcγRIIIA coated on ELISA plates (UniProt P08637 17-208, limits assumed).
T1 construct: 100 ng/well on the plate
The assay can be described thus: direct ELISA, receptor-coated plate. (In general: In an ELISA, binding on a coated surface is turned into a signal by an enzyme label.)

The target in assay [3] is T2, soluble extracellular domain of human CD32A-R131 (human, UniProt P12318 34-217).
T2 construct: extracellular domain; Monomeric analyte in BIAcore, 100 nM
T2 sequence (looked up): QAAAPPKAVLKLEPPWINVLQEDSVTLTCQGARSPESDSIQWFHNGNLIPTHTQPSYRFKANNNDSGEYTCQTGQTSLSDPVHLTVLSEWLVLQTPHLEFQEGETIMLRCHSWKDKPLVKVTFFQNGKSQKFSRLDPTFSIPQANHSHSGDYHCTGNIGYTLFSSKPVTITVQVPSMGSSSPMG
The assay can be described thus: SPR (BIAcore), antibody captured, soluble monomeric receptor injected.
Protocol: The capturing antibody, a F(ab′)2 fragment of a goat anti-mouse Fc-specific antibody (Jackson Immunoresearch, West Grove, Pa.), was immobilized on the CM-5 sensor chip according to the procedure recommended by the manufacturer. Briefly, the carboxyl groups on the sensor chip surface were activated with an injection of a solution containing 0.2M N-ethyl-N-(3diethylamino-propyl) carbodiimide and 0.05M N-hydroxy-succinimide. The F(ab′)2 fragment was then injected over the activated CM-5 surface in 10 mM sodium-acetate, pH 5.0, at flow rate 5 μl/min for 420 sec, followed by 1 M ethanolamine for deactivation. Binding experiments were performed in HBS-P buffer containing 110 mM HEPES, pH 7.4, 150 mM NaCl, and 0.005% P20 surfactant. Each monoclonal antibody was captured on the CM-5 chip by injecting a 300 nM-antibody solution at flow rate 5 μl/min for 240 sec, followed by an injection of the monomeric soluble receptors at concentration of 100 nM and a flow rate 50 μl/min for 120 sec with dissociation time 180 sec. Regeneration of the F(ab′)2 GAM surface was performed by pulse injection of 50 mM glycine, pH 1.5 and 50 mM NaOH. […] Resulted curves were analyzed by separate ka/kd fit. KD values were calculated as average of four curves at two different concentrations. […]

In assay [4] the target is T3, soluble extracellular domain of human FcγRIIB (CD32B), produced in mammalian (293/293H) cells (human, UniProt P31994 43-217).
T3 construct: extracellular domain; also called mammalian FcγRIIB; soluble monomeric human CD32B
T3 sequence (looked up): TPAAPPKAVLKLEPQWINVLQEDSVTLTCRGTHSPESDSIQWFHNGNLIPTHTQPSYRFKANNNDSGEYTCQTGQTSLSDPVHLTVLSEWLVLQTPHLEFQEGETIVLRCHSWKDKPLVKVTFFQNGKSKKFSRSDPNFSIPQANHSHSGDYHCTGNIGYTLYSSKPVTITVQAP
The assay can be described thus: direct ELISA, receptor-coated plate.

For assay [5], the target named is T4, CD32A (H131 form) on THP-1 monocytic cells (human, UniProt P12318 34-317).
T4 construct: whole, on cells
T4 sequence (looked up): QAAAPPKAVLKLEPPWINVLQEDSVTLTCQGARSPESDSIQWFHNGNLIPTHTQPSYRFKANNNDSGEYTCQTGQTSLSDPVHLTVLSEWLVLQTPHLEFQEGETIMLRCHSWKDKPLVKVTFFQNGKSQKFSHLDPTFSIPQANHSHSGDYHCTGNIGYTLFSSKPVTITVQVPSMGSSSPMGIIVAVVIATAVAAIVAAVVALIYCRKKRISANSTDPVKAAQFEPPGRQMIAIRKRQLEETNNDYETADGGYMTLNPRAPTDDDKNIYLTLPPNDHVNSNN
The assay can be described thus: FACS on THP-1 cells. Here is the method: Recognition of CD32B on the cell surface. Experiments were carried out to test the ability of the antibodies to discriminate CD32B from CD32A expressed on cells and to recognize the native CD32B molecule on human cell lines.

T1 sequence (P08637 17-208 limits assumed): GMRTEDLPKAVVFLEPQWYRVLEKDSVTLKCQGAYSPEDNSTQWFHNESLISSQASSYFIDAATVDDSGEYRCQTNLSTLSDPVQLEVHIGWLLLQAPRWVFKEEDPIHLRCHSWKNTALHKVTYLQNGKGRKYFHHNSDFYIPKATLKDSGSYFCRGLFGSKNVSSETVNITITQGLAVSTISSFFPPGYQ

aggregated human IgG (ligand) registered a percent of cells stained in assay [1] of 60%.

B1: mouse monoclonal antibody produced by clone 3H7 (antibody, V domains shown)
VH: EVKFEESGGGLVQPGGSMKLSCAASGFTFSDAWMDWVRQGPEKGLEWVAEIRNKANNLATYYAESVKGRFTIPRDDSKSSVYLHMNSLRAEDTGIYYCYSPFAYWGQGTLVTVSA
VL: DIQMTQSPSSLSASLGERVSLTCRASQEISGYLSWLQQKPDGTIRRLIYAASTLDSGVPKRFSGSWSGSDYSLTISSLESEDFADYYCLQYVSYPYTFGGGTKLEIK
notes: also called 3H7 antibody; 3H7 supernatant
For B1, the binding result in assay [2] is “no binding”.

B2: mouse monoclonal antibody produced by clone 2B6 (antibody, V domains shown)
VH: QVQLQQPVTELVRPGASVMLSCKASDYPFTNYWIHWVKQRPGQGLEWIGVIDPSDTYPNYNKKFKGKATLTVVVSSSTAYMQLSSLTSDDSAVYYCARNGDSDYYSGMDYWGQGTSVTVSS
VL: DILLTQSPAILSVSPGERVSFSCRTSQSIGTNIHWYQQRTNGFPRLLIKNVSESISGIPSRFSGSGSGTDFILSINSVESEDIADYYCQQSNTWPFTFGGGTKLEIK
notes: also called 2B6 antibody; m2B6
With B2, the values for the binding result in assay [3] and in assay [5] were “no binding (tested: 100 nM soluble receptor)” and “no binding”, respectively. Moreover, in assay [4], the “fold binding relative to AT10, FL18.26 and IV.3” value is no more than 4.5 fold.
